This is an account of results in publication PMC11154707, “Polymer-based antibody mimetics (iBodies) target human PD-L1 and function as a potent immune checkpoint blocker” (The Journal of Biological Chemistry, 2024).

Test [1] concerns the target T1, PD-1/PD-L1 engagement (hPD-L1-overexpressing Raji B cells, hPD-1-overexpressing Jurkat T cells) (Homo sapiens, UniProt Q9NZQ7).
T1 construct: expressed in transfected cells; host or cells: Raji B cells (PD-L1) co-cultured with Jurkat T cells (PD-1)
Briefly: Membrane CD69 expression in PD-L1 Raji B / PD-1 Jurkat T cell co-culture with SEE. The test is classed as cell-based. Conditions: 2 nM compound, 18 h co-culture; for overall expression of CD69 compared with non-treated samples: MFI, one-way ANOVA; for % CD69 (percentage of CD69-expressing cells): gated above basal CD69 without SEE. The protocol: (§1) B, PD-L1-overexpressing Raji B cells were pre-incubated with a dilution series of α-PD-L1 compounds in the presence of 25 pg/ml SEE for 1 h and then co-cultured in a 1:1 ratio with PD-1-overexpressing Jurkat T cells for 24 h. Supernatants were collected, and IL-2 levels were measured using ELISA. EC50 was calculated using a 4-parameter logistic function in GraphPad Prism 9.0.0. Data are representative of five independent experiments performed in duplicates, with error bars indicating the standard deviation. C, PD-L1-overexpressing Raji B cells were pre-incubated with 2 nM of α-PD-L1 compounds in the presence of 25 pg/ml SEE for 1 h and then co-cultured in a 1:1 ratio with PD-1-overexpressing Jurkat T cells for 18 h. Cells were collected and stained with BV421-conjugated anti-human CD69 antibody. […] Cells were measured with a BD LSRFortessa instrument (Fig. S9). Data are represented as median fluorescence intensity (MFI). Error bars indicate the standard deviation. D, histograms indicate the percentage of CD69-expressing cells (gated above the basal CD69 expression in the absence of SEE; no SEE). Data were analyzed with FlowJo 10.4.1 and are representative of three independent experiments performed in duplicates. MFI comparison was carried out using a one-way ANOVA test in GraphPad Prism 9.0.0. ∗∗ indicates p-value < 0.01; ns = not significant.
Co-culture for analysis of CD69 expression was set up similarly as above, except that cells were incubated for 18 h in the presence of 2 nM of all compounds. Next, cells were collected by centrifugation (600g, 6 min) and washed once with 200 μl PBS. Corresponding wells were stained with 100 μl of 1:100 BV421-anti-human CD69 antibody (BD Biosciences, cat# 562884) or 100 ng/well isotype control antibody (BD Biosciences cat# 562438) in PBS for 30 min at 4 °C. Afterwards, cells were washed three times with 200 μl PBS followed by viability staining using 100 μl of 1:1000 Zombie NIR fixable viability kit (Biolegend, cat# 423106) in PBS. Finally, the measurement was carried out on an LSRFortessa Flow Cytometer (Becton, Dickinson and Company) and analyzed with FlowJo 10.4.1. The cell population was gated based on their forward and side scatter properties, followed by gating for single and viable cells. The Gating strategy is explained in the Fig. S9.

The target in test [2] is T1, PD-1/PD-L1 engagement (hPD-L1-overexpressing Raji B cells, hPD-1-overexpressing Jurkat T cells). Briefly: IL-2 production in PD-L1 Raji B / PD-1 Jurkat T cell co-culture with SEE. The test is classed as cell-based. Conditions: 25 pg/ml SEE, 24 h co-culture, IL-2 ELISA of supernatants; read-out: EC50 of restored T cell activation (IL-2). The procedure: as §1
(In general: An ELISA detects its analyte on a solid surface through an enzyme-linked reagent.)

Test [3] addresses PD-L1. The conditions noted are these: read-out: published Kd; cited from earlier work.
Test [4] deals with PD-L1. Details: method as in http://en.atagenix.com/product_detail-23647.html, 30. The conditions noted are these: indirect ELISA; ref http://en.atagenix.com/product_detail-23647.html, 30; read-out: published EC50, indirect ELISA; cited from earlier work.

T1 sequence (Q9NZQ7 19-290): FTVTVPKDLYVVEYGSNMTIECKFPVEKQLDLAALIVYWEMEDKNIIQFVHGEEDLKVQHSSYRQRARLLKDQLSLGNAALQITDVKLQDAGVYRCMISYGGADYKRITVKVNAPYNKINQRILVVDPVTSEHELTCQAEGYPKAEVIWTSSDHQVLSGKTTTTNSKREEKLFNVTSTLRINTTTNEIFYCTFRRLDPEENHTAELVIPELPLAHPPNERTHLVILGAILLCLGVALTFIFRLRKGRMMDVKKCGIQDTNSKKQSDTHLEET

Turning to “atezolizumab: FDA-approved PD-L1-targeting monoclonal antibody”, in test [1], the “overall expression of CD69 compared with non-treated samples” value is “substantial increase” and the “% CD69 (percentage of CD69-expressing cells)” value stood at 33±4%. Moreover, the EC50 – broadly, the midpoint of the concentration-response curve – in test [2] was determined as 0.3 nM.

Turning to “avelumab: FDA-approved PD-L1-targeting monoclonal antibody”, the Kd – broadly, the constant that tells how readily two partners part at equilibrium – at PD-L1 [3] is 0.04 nM.

For the substance “durvalumab: FDA-approved PD-L1-targeting monoclonal antibody”, in test [1], the “overall expression of CD69 compared with non-treated samples” value is recorded as “substantial increase” and the “% CD69 (percentage of CD69-expressing cells)” value amounted to 36±1%. Besides, the EC50 with PD-L1 [4] was ~0.32 nM. In test [2], the EC50 stood at 0.6 nM.
